According to article PMC10152144 (2026):

Target: Arp2/3 complex (Bos taurus, UniProt A7MB62)
Assay: single-filament microfluidics TIRF detachment assay

Kd [nM] | Binder
70 | GMF (protein) SDSLVVCEVDPELKETLRKFRFRKETNNAAIIMKVDKDRQMVVLEDELQNISPEELKLELPERQPRFVVYSYKYVHDDGRVSYPLCFIFSSPVGCKPEQQMMYAGSKNRLVQTAELTKVFEIRTTDDLTETWLKEKLAFFR
560 | VCA motif VCA (protein) PSDGDHQVPTTAGNKAALLDQIREGAQLKKVEQNSRPVSCSGRDALLDQIRQGIQLKSVADGQESTPPTPAPTSGIVGALMEVMQKRSKAIHSSDEDEDEDDEEDFEDDDEWED
